Data: patent publication US20110124572A1 (published 2011)

Target: small GTPase Rac1 (UniProt P63000 1-189)
Experiment: immunoprecipitation with Tiam-1 antiserum from MCF-7 line lysates, blot with anti-Rac1
Method: In brief, 70% confluent cultures of 25 mL flask were detached, pelleted and following 2 times washing with PBS. The pellet were lysed in RIPA buffer then centrifuged and the supernatant was pre-cleared by addition of 5 μL of protein A/G-sepharose beads slurry (Pierce) for 2 hours, then the supernatant was incubated with the antibody of interest for 24 hours. 10 μL of protein A/G slurry was added for 2 hours, collected by pulse centrifugation, washed 3 times with lysis buffer, resuspended in 2×SDS loading buffer subjected to SDS-PAGE, followed by immunoblotting with the appropriate antibodies.

B1: Tiam-1, Rac1-specific guanine nucleotide exchange factor (RacGEF) (enzyme)
chain: GNAESQHVEHEFYGEKHASLGRKHTSRSLRLSHKTRRTRHASSGKVIHRNSEVSTRSSSTPSIPQSLAENGLEPFSQDGTLEDFGSPIWVDRVDMGLRPVSYTDSSVTPSVDSSIVLTAASVQSMPDTEESRLYGDDATYLAEGGRRQHSYTSNGPTFMETASFKKKRSKSADIWREDSLEFSLSDLSQEHLTSNEEILGSAEEKDCEEARGMETRASPRQLSTCQRANSLGDLYAQKNSGVTANGGPGSKFAGYCRNLVSDIPNLANHKMPPAAAEETPPYSNYNTLPCRKSHCLSEGATNPQISHSNSMQGRRAKTTQDVNAGEGSEFADSGIEGATTDTDLLSRRSNATNSSYSPTTGRAFVGSDSGSSSTGDAARQGVYENFRRELEMSTTNSESLEEAGSAHSDEQSSGTLSSPGQSDILLTAAQGTVRKAGALAVKNFLVHKKNKKVESATRRKWKHYWVSLKGCTLFFYESDGRSGIDHNSIPKHAVWVENSIVQAVPEHPKKDFVFCLSNSLGDAFLFQTTSQTELENWITAIHSACATAVARHHHKEDTLRLLKSEIKKLEQKIDMDEKMKKMGEMQLSSVTDSKKKKTILDQIFVWEQNLEQFQMDLFRFRCYLASLQGGELPNPKRLLAFASRPTKVAMGRLGIFSVSSFHALVAARTGETGVRRRTQAMSRSASKRRSRFSSLWGLDTTSKKKQGRPSINQVFGEGTEAVKKSLEGIFDDIVPDGKREKEVVLPNVHQHNPDCDIWVHEYFTPSWFCLPNNQPALTVVRPGDTARDTLELICKTHQLDHSAHYLRLKFLIENKMQLYVPQPEEDIYELLYKEIEICPKVTQSIHIEKSDTAADTYGFSLSSVEEDGIRRLYVNSVKETGLASKKGLKAGDEILEINNRAADALNSSMLKDFLSQPSLGLLVRTYPELEEGVELLESPPHRVDGPADLGESPLAFLTSNPGHSLCSEQGSSAETAPEETEGPDLESSDETDHSSKSTEQVAAFCRSLHEMNPSDQSPSPQDSTGPQLATMRQLSDADKLRKVICELLETERTYVKDLNCLMERYLKPLQKETFLTQDELDVLFGNLTEMVEFQVEFLKTLEDGVRLVPDLEKLEKVDQFKKVLFSLGGSFLYYADRFKLYSAFCASHTKVPKVLVKAKTDTAFKAFLDAQNPKQQHSSTLESYLIKPIQRILKYPLLLRELFALTDAESEEHYHLDVAIKTMNKVASHINEMQKIHEEFGAVFDQLIAEQTGEKKEVADLSMGDLLLHTTVIWLNPPASLGKWKKEPELAAFVFKTAVVLVYKDGSKQKKKLVGSHRLSIYEDWDPFRFRHMIPTEALQVRALASADAEANAVCEIVHVKSESEGRPERVFHLCCSSPESRKDFLKAVHSILRDKHRRQLLKTESLPSSQQYVPFGGKRLCALKGARPAMSRAVSAPSKSLGRRRRRLARNRFTIDSDAVSASSPEKESQQPPGGGDTDRWVEEQFDLAQYEEQDDIKETDILSDDDEFCESVKGASVDRDLQERLQATSISQRERGRKTLDSHASRMAQLKKQAALSGINGGLESASEEVIWVRREDFAPSRKLNTEI
notes: Endogenous protein in MCF-7 cell lysate
- binding result: binds
